Molecular target: T1, GST-RNF2 (human, UniProt Q99496 1-336)
T1 construct: RNF2; also called recombinant GST-tagged human RNF2; source: Escherichia coli BL-21, immobilized on glutathione-Sepharose beads
T1 sequence (looked up): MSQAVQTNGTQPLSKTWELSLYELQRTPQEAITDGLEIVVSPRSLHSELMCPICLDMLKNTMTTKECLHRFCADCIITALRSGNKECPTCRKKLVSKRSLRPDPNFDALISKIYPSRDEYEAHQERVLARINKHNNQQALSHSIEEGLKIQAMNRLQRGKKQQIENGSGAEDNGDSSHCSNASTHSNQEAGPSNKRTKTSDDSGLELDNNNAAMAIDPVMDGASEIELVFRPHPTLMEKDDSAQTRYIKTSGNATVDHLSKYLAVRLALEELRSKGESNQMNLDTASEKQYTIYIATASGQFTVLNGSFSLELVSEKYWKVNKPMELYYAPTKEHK
Test: pull-down; GST-RNF2 immobilized on glutathione-Sepharose beads incubated with recombinant His-MANF; blot with anti-MANF
Settings: both partners purified

B1: His-tagged human MANF (natural protein, UniProt P55145 25-182, looked up)
chain: LRPGDCEVCISYLGRFYQDLKDRDVTFSPATIENELIKFCREARGKENRLCYYIGATDDAATKIINEVSKPLAHHIPVEKICEKLKKKDSQICELKYDKQIDLSTVDLKKLRVKELKKILDDWGETCKGCAEKSDYIRKINELMPKYAPKAASARTDL
notes: human MANF; also called His-MANF; recombinant His-MANF; source: Escherichia coli BL-21, purified (Ni-NTA agarose)
binding result: binds

From publication PMC11607471, “E3 Ubiquitin Ligase Ring Finger Protein 2 Alleviates Cerebral Ischemia–Reperfusion Injury by Stabilizing Mesencephalic Astrocyte‐Derived Neurotrophic Factor Through Monoubiquitination” (CNS Neuroscience & Therapeutics, 2024)
